For experiment [1], the target named is Sarbecovirus (SARS-CoV-2 / SARS-CoV) spike C-terminal hepta-peptide, wild type (UniProt P0DTC2). Conditions: pH 7.5; 25°C; 150 mM NaCl.
Experiment [2] shares this target. Conditions: pH 7.5; 25°C; 150 mM NaCl. The source holds these as a separate data set.
Experiment [3] shares this target. Conditions: pH 6.5; 25°C; 150 mM NaCl.

This is an account of results in doi:10.1101/2021.09.03.458953.

Like-named read-outs stand apart in the source and are kept apart here.

Consider “Coatomer subunit alpha N-terminal WD40 domain (alphaCOPI-WD40) L181K;L185K;I192K;L196K;F197K”, for which the “kinetic KD” value in experiment [1] is 2750 ± 90 nM. The entries for the “equilibrium KD” value in experiment [2] and in experiment [3] were 4170 ± 40 nM and 1400 ± 150 nM, respectively.
